Assay [1] deals with T1, Gid9 (S. cerevisiae, UniProt P40492 1-516).
T1 sequence: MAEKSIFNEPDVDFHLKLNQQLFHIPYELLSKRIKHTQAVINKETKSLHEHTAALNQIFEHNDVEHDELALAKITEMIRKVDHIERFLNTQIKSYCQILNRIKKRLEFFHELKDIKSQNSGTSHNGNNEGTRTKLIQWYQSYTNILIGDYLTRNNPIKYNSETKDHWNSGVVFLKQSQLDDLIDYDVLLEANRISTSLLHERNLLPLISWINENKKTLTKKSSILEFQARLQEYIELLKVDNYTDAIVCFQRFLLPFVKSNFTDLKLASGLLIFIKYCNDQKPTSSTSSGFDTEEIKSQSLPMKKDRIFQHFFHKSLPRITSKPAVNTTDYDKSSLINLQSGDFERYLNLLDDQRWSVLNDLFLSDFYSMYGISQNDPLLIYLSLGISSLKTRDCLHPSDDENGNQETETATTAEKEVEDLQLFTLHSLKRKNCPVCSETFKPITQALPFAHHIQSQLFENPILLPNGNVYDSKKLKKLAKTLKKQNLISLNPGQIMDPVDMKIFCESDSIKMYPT
In words: […].

Assay [2] addresses T2, Gid1 (endogenous, in native GID^Ant) (S. cerevisiae (endogenous in strain …, UniProt P53076 1-958)).
T2 sequence: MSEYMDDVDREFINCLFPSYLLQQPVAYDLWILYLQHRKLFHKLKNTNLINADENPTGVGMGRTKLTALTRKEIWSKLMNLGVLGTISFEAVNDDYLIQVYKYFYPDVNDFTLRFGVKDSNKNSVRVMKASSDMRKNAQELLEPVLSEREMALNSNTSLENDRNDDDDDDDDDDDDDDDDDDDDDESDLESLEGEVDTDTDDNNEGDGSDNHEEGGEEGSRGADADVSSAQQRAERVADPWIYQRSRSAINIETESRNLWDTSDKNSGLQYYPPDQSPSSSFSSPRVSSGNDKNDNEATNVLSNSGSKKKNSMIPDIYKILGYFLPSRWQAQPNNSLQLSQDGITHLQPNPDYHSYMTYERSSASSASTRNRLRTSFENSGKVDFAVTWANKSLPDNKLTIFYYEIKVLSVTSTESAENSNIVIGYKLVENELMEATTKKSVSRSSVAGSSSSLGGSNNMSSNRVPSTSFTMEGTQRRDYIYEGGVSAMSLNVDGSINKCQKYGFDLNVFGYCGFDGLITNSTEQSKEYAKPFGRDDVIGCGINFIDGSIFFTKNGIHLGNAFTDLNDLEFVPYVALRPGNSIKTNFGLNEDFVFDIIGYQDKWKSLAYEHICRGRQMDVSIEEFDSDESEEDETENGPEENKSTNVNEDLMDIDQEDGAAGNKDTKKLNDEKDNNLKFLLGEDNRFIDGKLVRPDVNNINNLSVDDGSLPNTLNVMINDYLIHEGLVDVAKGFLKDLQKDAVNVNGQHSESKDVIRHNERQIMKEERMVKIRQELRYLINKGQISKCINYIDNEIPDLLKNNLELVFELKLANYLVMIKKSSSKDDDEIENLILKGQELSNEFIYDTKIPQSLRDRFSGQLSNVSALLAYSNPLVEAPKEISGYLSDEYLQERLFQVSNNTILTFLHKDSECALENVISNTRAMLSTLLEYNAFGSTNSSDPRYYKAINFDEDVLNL
The assay is described as follows: cryo-EM structure.

Assay [3] concerns the target T3, Gid9 (endogenous, in native GID^Ant) (S. cerevisiae (endogenous in strain …, UniProt P40492 1-516)).
T3 sequence: T1 sequence
In words: cryo-EM structure.

Assay [4] addresses T4, Gid1 (S. cerevisiae, UniProt P53076 1-958).
T4 sequence: T2 sequence
The assay is described as follows: […].

B1: Gid2 (natural protein)
chain: MSELLDSFETEFAKFYTDSNLEETNLQKCLDHTHEFKSQLKKLKAHLNKHIQESKPEVYNKLSDKEKQKFKRKRELIIEKLSKSQRQWDHSVKKQIKYVSQQSNRFNKSTLNKLKEFDIDSVYVNKLPKETMENVNEAIGYHILRYSIDNMPLGNKNEAFQYLKDVYGITNKESTEFIEMGQIVHDLKKGDTESCLKWCSNEMESLSSNHTALSSLKFDLYTLSAMQIVKHGNPVELYYQITQNAPLDCFRHREKELMQNVVPLLTKSLIGQPIEDIDSKVNKELKECTSLFIKEYCAAKHIFFDSPLFLIVLSGLISFQFFIKYKTIRELAHVDWTTKDELPFDVKLPDFLTHFHPIFICPVLKEETTTENPPYSLACHHIISKKALDRLSKNGTITFKCPYCPVNTSMSSTKKVRFVML
For B1, the binding result in assay [1] is recorded as “binds”.

B2: Gid8 with 3X Flag tag at the C-terminus (endogenous, strain CRLY45) (natural protein)
chain: MTISTLSNETTKSGSCSGQGKNGGKDFTYGKKCFTKEEWKEQVAKYSAMGELYANKTIHYPLKIQPNSSGGSQDEGFATIQTTPIEPTLPRLLLNYFVSMAYEDSSIRMAKELGFIRNNKDIAVFNDLYKIKERFHIKHLIKLGRINEAMEEINSIFGLEVLEETFNATGSYTGRTDRQQQQQQQQFDIDGDLHFKLLLLNLIEMIRSHHQQENITKDSNDFILNLIQYSQNKLAIKASSSVKKMQELELAMTLLLFPLSDSADSGSIKLPKSLQNLYSISLRSKIADLVNEKLLKFIHPRIQFEISNNNSKFPDLLNSDKKIITQNFTVYNNNLVNGSNGTKITHISSDQPINEKMSSNEVTAAANSVWLNQRDGNVGTGSAATTFHNLENKNYWNQTSELLSSSNGKEKGLEFNNYYSSEFPYEPRLTQIMKLWCWCENQLHHNQIGVPRVEN
In the case of B2, the binding result in assay [2] and in assay [3] was “binds” each time.

B3: Gid8 (natural protein)
chain: B2 chain
For the molecule B3, the binding result in assay [4] and in assay [1] was “binds” each time.

These data come from doi:10.1101/824060 (bioRxiv, 2019).
